Test [1] has as its target T1, human VEGFR-1 (FLT-1) expressed on porcine aortic endothelial cells (PAE/FLT-1) (human), P17948.
T1 chain: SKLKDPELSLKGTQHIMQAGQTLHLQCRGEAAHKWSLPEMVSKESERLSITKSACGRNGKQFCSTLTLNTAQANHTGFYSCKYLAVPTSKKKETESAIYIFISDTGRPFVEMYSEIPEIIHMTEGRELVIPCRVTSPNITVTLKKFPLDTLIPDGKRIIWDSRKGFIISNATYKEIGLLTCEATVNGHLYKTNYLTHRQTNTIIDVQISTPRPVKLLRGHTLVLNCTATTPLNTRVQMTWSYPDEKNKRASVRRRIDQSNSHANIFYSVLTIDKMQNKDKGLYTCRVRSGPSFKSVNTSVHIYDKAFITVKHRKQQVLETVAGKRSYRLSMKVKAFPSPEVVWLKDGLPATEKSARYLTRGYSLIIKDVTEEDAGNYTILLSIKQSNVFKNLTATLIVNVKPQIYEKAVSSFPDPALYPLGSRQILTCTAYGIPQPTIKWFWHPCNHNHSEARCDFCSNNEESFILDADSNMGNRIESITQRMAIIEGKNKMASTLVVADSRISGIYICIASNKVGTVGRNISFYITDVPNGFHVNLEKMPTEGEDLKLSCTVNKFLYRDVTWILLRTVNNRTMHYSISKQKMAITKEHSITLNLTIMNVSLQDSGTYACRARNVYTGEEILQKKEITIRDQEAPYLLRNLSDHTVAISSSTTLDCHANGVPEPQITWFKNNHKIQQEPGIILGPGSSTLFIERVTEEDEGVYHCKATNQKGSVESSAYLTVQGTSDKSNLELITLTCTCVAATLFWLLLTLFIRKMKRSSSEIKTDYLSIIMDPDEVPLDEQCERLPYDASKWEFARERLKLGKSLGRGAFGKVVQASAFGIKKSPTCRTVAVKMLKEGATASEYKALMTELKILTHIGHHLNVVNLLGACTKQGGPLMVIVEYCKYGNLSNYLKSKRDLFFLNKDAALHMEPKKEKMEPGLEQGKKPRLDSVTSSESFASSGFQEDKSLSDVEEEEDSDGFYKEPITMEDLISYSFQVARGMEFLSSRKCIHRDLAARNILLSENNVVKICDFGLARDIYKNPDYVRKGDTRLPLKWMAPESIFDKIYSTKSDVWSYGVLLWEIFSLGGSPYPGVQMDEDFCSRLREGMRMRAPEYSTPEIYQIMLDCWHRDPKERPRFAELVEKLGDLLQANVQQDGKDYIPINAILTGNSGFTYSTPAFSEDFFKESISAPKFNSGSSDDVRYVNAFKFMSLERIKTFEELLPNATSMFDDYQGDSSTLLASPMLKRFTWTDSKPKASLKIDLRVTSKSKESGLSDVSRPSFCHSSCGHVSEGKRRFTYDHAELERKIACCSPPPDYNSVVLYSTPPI
Put plainly: competitive cell binding on PAE/FLT-1 cells, 125I-VEGF165 as radioligand. Particulars: remark: other sources report otherwise.

Test [2] concerns the target T2, human VEGFR-2 (KDR) expressed on porcine aortic endothelial cells (PAE/KDR) (human, UniProt P35968 20-1356).
T2 construct: whole, on cells; also called Flk-1/KDR; PAE/KDR cells
As to the kind of experiment: competitive cell binding on PAE/KDR cells, 125I-VEGF165 as radioligand (Example 2).

Test [3] addresses T2, human VEGFR-2 (KDR) expressed on …. As to the kind of experiment: competitive cell binding on PAE/KDR cells, 125I-VEGF165 as radioligand. On the procedure:
(§1) The detailed procedure of competitive cell binding assay has been described herein. VEGFR-1 and VEGFR-2 binding affinity of VEGF₁₂₁, VEGFDEE, and the DOTA conjugates was evaluated by PAE/FLT-1 and PAE/KDR cell binding assays using ¹²⁵I-VEGF₁₆₅ (VEGF₁₆₅ protein (SEQ ID No: 4)) as the radioligand. The best-fit IC₅₀ values were calculated by fitting the data by nonlinear regression using GraphPad Prism (GraphPad Software, Inc.). Experiments were carried out with triplicate samples.

Test [4] shares this target. Put plainly: competitive cell binding on PAE-KDR cells, 125I-VEGF165 as radioligand. On the procedure: (§2) Porcine aortic endothelial cells (PAE-KDR cells) stably transfected to express human VEGFR2 (KDR) and porcine aortic endothelial cells (PAE cells) not expressing VEGFR1 and VEGFR2 were cultured in Ham's F-12 medium containing 10% fetal bovine serum (Sigma-Aldrich, Saint Louis, Mo.). Using ¹²⁵I-VEGF₁₆₅ as the radioligand, receptor-binding affinity of VEGF₁₂₁ and VEGFNLS for VEGFR2 was performed as described elsewhere for both PAE-KDR and PAE cells (J Med. Chem. 2005; 48:1098-1106, which is include herein by reference). […] Serially diluted VEGF₁₂₁ or VEGFNLS were then added to compete with the radioligand ¹²⁵I-VEGF₁₆₅. After 2 h incubation at room temperature, the plates were washed and bound ¹²⁵I-VEGF₁₆₅/sVEGFR1 complex was dissociated by acidified 0.1% SDS solution, the eluent was collected and the radioactivity was measured by a gamma counter (Cobra II Auto-Gamma; Perkin-Elmer, Wellesley, Mass.). The best-fit 50% inhibitory concentration (IC₅₀) values were calculated by fitting the data by nonlinear regression using GraphPad Prism 4.0 (GraphPad Software, Inc., San Diego, Calif.). Experiments were performed twice with triplicate samples.

Test [5] has as its target T3, soluble VEGFR1D1-D6 (sVEGFR1) (Homo sapiens (Human), UniProt P17948 27-687).
T3 construct: Coated on 96-well plates
Put plainly: plate-coated sVEGFR1, competition with 125I-VEGF165. On the procedure:
as §2

Test [6] addresses T2, human VEGFR-2 (KDR) expressed on …. As to the kind of experiment: cell-based or functional assay.
Test [7] shares this target. As to the kind of experiment: competitive cell binding on PAE/KDR cells. On the procedure: as §1
(§3) Two proteins were prepared for this study: VEGF₁₂₁ and the triple mutant at the 63, 64, and 67 positions (VEGFDEE) (FIG. 17). The His-tag containing proteins were purified to homogeneity. Cell binding assay was then carried out to determine the VEGFR-1 and VEGFR-2 binding affinity (FIGS. 18a and 18b).

For test [8], the target named is T4, human VEGFR-1 (FLT-1) expressed on porcine aortic endothelial cells (PAE/FLT-1) (human, UniProt P17948 27-1338).
T4 construct: whole, on cells; also called PAE/VEGFR-1 cells; PAE/FLT-1 cells
As to the kind of experiment: competitive cell binding on PAE/FLT-1 cells. On the procedure: as §1, §3

For test [9], the target named is T2, human VEGFR-2 (KDR) expressed on …. Put plainly: competitive cell binding on PAE/KDR against PAE/FLT-1 cells. On the procedure: as §1, §3
In test [10] the target is T4, human VEGFR-1 (FLT-1) expressed on …. As to the kind of experiment: competitive cell binding on PAE/FLT-1 cells, 125I-VEGF165 as radioligand. On the procedure: as §1, §3

T2 sequence (P35968 20-1356): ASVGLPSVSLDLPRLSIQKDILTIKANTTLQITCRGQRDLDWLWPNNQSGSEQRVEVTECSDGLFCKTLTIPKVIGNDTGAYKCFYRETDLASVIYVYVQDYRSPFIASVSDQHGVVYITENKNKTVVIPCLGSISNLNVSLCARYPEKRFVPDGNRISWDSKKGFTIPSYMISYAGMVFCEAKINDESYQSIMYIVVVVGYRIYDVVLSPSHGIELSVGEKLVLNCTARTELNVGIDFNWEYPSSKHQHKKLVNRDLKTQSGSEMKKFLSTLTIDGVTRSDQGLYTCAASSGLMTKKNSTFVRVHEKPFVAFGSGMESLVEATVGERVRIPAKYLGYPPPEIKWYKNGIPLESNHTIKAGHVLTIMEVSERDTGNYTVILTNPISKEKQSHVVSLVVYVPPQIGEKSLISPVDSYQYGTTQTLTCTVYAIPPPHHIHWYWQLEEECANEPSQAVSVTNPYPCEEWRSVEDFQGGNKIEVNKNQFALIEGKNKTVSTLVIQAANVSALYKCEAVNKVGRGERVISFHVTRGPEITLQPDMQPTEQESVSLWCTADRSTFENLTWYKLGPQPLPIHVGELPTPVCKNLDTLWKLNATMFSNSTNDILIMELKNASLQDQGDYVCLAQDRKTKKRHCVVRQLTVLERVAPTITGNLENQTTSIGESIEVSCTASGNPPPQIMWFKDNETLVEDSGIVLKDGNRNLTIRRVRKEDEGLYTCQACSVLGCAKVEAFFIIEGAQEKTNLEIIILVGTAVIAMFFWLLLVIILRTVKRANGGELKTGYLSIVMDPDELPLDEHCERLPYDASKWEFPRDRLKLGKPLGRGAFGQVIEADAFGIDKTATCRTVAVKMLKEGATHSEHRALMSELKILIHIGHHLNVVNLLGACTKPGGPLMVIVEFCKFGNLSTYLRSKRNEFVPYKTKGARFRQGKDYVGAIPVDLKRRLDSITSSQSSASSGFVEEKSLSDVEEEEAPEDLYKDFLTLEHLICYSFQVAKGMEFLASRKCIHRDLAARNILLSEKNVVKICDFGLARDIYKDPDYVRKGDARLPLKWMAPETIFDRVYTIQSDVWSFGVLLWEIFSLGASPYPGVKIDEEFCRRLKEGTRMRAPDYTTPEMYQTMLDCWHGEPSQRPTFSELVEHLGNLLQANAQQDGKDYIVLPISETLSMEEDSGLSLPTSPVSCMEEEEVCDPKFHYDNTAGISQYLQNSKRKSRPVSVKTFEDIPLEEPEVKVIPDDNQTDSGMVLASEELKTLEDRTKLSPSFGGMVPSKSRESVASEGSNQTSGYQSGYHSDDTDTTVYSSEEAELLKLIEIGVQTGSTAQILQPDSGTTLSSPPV

B1: VEGF121 protein (Examples 3 and 5: His-tag containing, expressed from pRSF-Duet1), P15692 207-395 (ligand, not shown: small tags and cut ends)
chain: APMAEGGGQNHHEVVKFMDVYQRSYCHPIETLVDIFQEYPDEIEYIFKPSCVPLMRCGGCCNDEGLECVPTEESNITMQIMRIKPHQGQHIGEMSFLQHNKCECRPKKDRARQEKCDKPRR
On to B1, for which the IC50 (as a rule, the midpoint of a concentration-inhibition curve) in test [1] is 4.2 nM.

B2: DOTA-VEGF121 (Examples 1 and 2) (ligand)
chain: APMAEGGGQNHHEVVKFMDVYQRSYCHPIETLVDIFQEYPDEIEYIFKPSCVPLMRCGGCCNDEGLECVPTEESNITMQIMRIKPHQGQHIGEMSFLQHNKCECRPKKDRARQEKCDKPRR
modifications: DOTA conjugated to lysine residues and/or N-terminal amine groups; 4.33±0.24 DOTA per VEGF121
notes: The conjugation sites are not mapped
As to B2, the IC50 is 1.59 nM in test [2] and 1.66 nM in test [3].

B3: VEGF121 protein (Examples 3 and 5: His-tag containing, expressed from pRSF-Duet1) (ligand)
chain: APMAEGGGQNHHEVVKFMDVYQRSYCHPIETLVDIFQEYPDEIEYIFKPSCVPLMRCGGCCNDEGLECVPTEESNITMQIMRIKPHQGQHIGEMSFLQHNKCECRPKKDRARQEKCDKPRR
notes: No tag removal is described; also called wild type VEGF121; wild-type VEGF121; not shown: His-tag
Consider B3, for which the IC50 in test [4] worked out at 2.9 nM. Also, in [5], the IC50 is 4 nM. In test [6], the “functional assay using PAE/KDR cells (FIG. 18e)” value is over 5 nM and the “phosphorylated VEGFR-2 (Western blot, PAE/KDR cells)” value was over 10 nM.

B4: DOTA-VEGF121 (Example 5) (ligand)
chain: APMAEGGGQNHHEVVKFMDVYQRSYCHPIETLVDIFQEYPDEIEYIFKPSCVPLMRCGGCCNDEGLECVPTEESNITMQIMRIKPHQGQHIGEMSFLQHNKCECRPKKDRARQEKCDKPRR
modifications: DOTA conjugated; 2.1±0.1 DOTA molecules per monomeric VEGF121; sites not stated
notes: DOTA conjugate of m3; not shown: His-tag
As to B4, in test [6], the “functional assay using PAE/KDR cells (FIG. 18e)” value is over 5 nM and the “phosphorylated VEGFR-2 (Western blot, PAE/KDR cells)” value was over 10 nM. The IC50 in test [3] turned out to be 5 nM.

B5: VEGF121 protein (Examples 1 and 2: expressed from pET-32, tag removed with enterokinase) (ligand)
chain: APMAEGGGQNHHEVVKFMDVYQRSYCHPIETLVDIFQEYPDEIEYIFKPSCVPLMRCGGCCNDEGLECVPTEESNITMQIMRIKPHQGQHIGEMSFLQHNKCECRPKKDRARQEKCDKPRR
notes: also called unlabeled VEGF121; naive VEGF121
As for B5, the values for the IC50 in [2] and in [3] were 1.11 nM and 1.02 nM, respectively.

B6: VEGFR-2 specific mutant VEGFDEE (D63AE64AE67A mutant of VEGF121) (ligand)
chain: MAPMAEGGGQNHHEVVKFMDVYQRSYCHPIETLVDIFQEYPDEIEYIFKPSCVPLMRCGGCCNAAGLACVPTEESNITMQIMRIKPHQGQHIGEMSFLQHNKCECRPKKDRARQEKCDKPRRGS
notes: also called VEGF121-DEE Mutant; not shown: His-tag
Consider B6, for which the “fold lower binding affinity against VEGF121” value in test [7] is 4 fold. Further, the “fold lower binding against VEGF121” value in [8] is about 20 fold. The “fold higher binding affinity against VEGFR-1” value in test [9] was about 7 fold. In test [10], the IC50 was 78.1 nM. Further, in [6], the “functional assay using PAE/KDR cells (FIG. 18e)” value was over 5 nM and the “phosphorylated VEGFR-2 (Western blot, PAE/KDR cells)” value was over 10 nM. In [3], this molecule returned an IC50 of 11.7 nM.

B7: DOTA-VEGFDEE (ligand)
chain: MAPMAEGGGQNHHEVVKFMDVYQRSYCHPIETLVDIFQEYPDEIEYIFKPSCVPLMRCGGCCNAAGLACVPTEESNITMQIMRIKPHQGQHIGEMSFLQHNKCECRPKKDRARQEKCDKPRRGS
modifications: DOTA conjugated; 2.2±0.1 DOTA molecules per monomeric VEGFDEE; sites not stated
notes: DOTA conjugate of m4; not shown: His-tag
As to B7, in test [6], the “functional assay using PAE/KDR cells (FIG. 18e)” value is over 5 nM and the “phosphorylated VEGFR-2 (Western blot, PAE/KDR cells)” value is over 10 nM. Moreover, the IC50 in test [3] was found to be 10.3 nM.

These data come from patent US20080031815A1 (published 2008).
